Measurements reported in patent publication US10385103B2, “Cell-permeable (ICP)-SOCS3 recombinant protein and uses thereof” (CELLIVERY THERAPEUTICS, INC., priority 2014, dated 2019).
Entries after “also recorded” stand apart in the source; their conditions may differ. Read-outs that look alike come from different tables or passages of the source.

Legend:
[1] = Solubility/yield of SOCS3 recombinant proteins expressed and purified from E. coli; type: physicochemical
Experimental: Thereafter, the recombinant protein gene-introduced E. coli was inoculated in 7 ml of LB medium, and then incubated at 37° C. overnight. The E. coli was inoculated in 700 ml of LB medium and incubated at 37° C. until OD600 reached 0.6. To this culture medium, 0.6 mM of isopropyl-β-D-thiogalactoside (IPTG, Gen Depot, USA) was added as a protein expression inducer, followed by further incubation at 37° C. for 3 hours. This culture medium was centrifuged at 4° C. and 8,000 rpm for 10 minutes and a supernatant was discarded to recover a cell pellet. The cell pellet thus recovered was suspended in a lysis buffer (100 mM NaH2PO4, 10 mM Tris-HCl, 8 M Urea, pH 8.0), and cells were disrupted by sonication (on/off time: 30 sec/30 sec, on time 2 hours, amplify 40%), and centrifuged at 15,000 rpm for 30 min to obtain a soluble fraction and an insoluble fraction.
After purification, the proteins were put in a SnakeSkin Dialysis Tubing bag (pore size: 10000 mw, Thermo scientific, USA) and then they were dialyzed by physiological buffer (DMEM). The strain lysate where protein expression was not induced, the strain lysate where protein expression was induced by addition of IPTG, and purified proteins were loaded on SDS-PAGE to analyze protein expression characteristics and expression levels (FIGS. 19 and 20).
Solubility of aMTD/SD-fused SOCS3 proteins was scored on a 5 point scale compared with that of SOCS3 proteins lacking the solubilization domain.

AGS cells = experiment: Induction of apoptosis by Annexin V/7-AAD staining in gastric carcinoma cells; type: cell-based; conditions: 10 uM, 14 hours
Experimental: AGS cells (gastric carcinoma cell line) (American Type Culture Collection; ATCC) were seeded in a 12-well plate at a density of 1×10^5 cells/well, and then treated with 10 uM of aMTD/SD-fused SOCS3 for 14 hours. Cancer cell death was analyzed by Annexin V analysis. Annexin V/7-Aminoactinomycin D (7-AAD) staining was performed using flow cytometry according to the manufacturer's guidelines (BD Pharmingen, San Diego, Calif., USA). Briefly, cells were washed three times with ice-cold PBS. The cells were then resuspended in 100 μl of binding buffer and incubated with 1 μl of 7-AAD and 1 μl of annexin V-PE for 30 min in the dark at 37° C. Flow cytometric analysis was immediately performed using a guava easyCyte™ 8 Instrument (Merck Millipore, Darmstadt, Germany).

STAT3 = experiment: Inhibition of IFN-γ-induced STAT phosphorylation in PANC-1 cells (western blot), STAT3; type: cell-based
Experimental: (§1) PANC-1 Cells (KCLB, Seoul, South Korea) were treated with 10 ng/ml IFN-γ (R&D systems, Abingdon, UK) for 15 min and treated with either DMEM (vehicle) or 10 μM aMTD/SD-fused SOCS3 recombinant proteins for 2 hrs. The cells were lysed in RIPA lysis buffer (Biosesang, Seongnam, Korea) containing proteinase inhibitor cocktail (Roche, Indianapolis, Ind., USA), incubated for 15 min at 4° C., and centrifuged at 13,000 rpm for 10 min at 4° C. Equal amounts of lysates were separated on 10% SDS-PAGE gels and transferred to a nitrocellulose membrane. The membranes were blocked using 5% skim milk in TBST and for western blot analysis incubated with the following antibodies: anti-phospho-STAT1 (Cell Signaling Technology, USA) and anti-phospho-STAT3 (Cell Signaling Technology, USA), then HRP conjugated anti-rabbit secondary antibody (Santacruz).
as §1, with “(vehicle) or 1, 5, 10 μM” for “(vehicle) or 10 μM”, “following antibodies: anti-phospho-STAT3 (Cell” for “following antibodies: anti-phospho-STAT1 (Cell Signaling Technology, USA) and anti-phospho-STAT3 (Cell”

HepG2 cells = experiment: Cell-permeability of FITC-labeled SOCS3 recombinant proteins in hepatocellular carcinoma cells (flow cytometry); type: cell-based, human; conditions: 10 μM FITC-labeled protein, 1 hr, 37° C.
Experimental: HepG2 cells (ATCC, Manassas, Va., USA) were seeded in a 12 well plate, grown to 90% confluence. Cells were treated with 10 μM FITC-labeled iCP-SOCS3 recombinant proteins and cultivated for 1 hr at 37° C.
After cultivation, the cells were treated with proteinase K (10 ug/mL, SIGMA, USA) and washed three times with ice-cold PBS (Phosphate-buffered saline, Hyclone, USA) to remove surface-bound proteins, and internalized proteins were measured by flow cytometry (FlowJo cytometric analysis software, Guava, Millipore, Darmstadt, Germany). Untreated cells (gray) and equimolar concentration of unconjugated FITC (FITC only, green)-treated cells were served as control (FIG. 57).

B1: HM165S3B: His-tagged recombinant protein of aMTD165, human SOCS3 and solubilization domain B; prototype improved cell-permeable SOCS3 (protein)
chain: MGSSHHHHHHSSGLVPRGSHMALAVPVALAIVPVTHSKFPAAGMETSRPLDTSLRLKTFSSKSEYQLVVNAVRKLQESGFYWSAVTGGEANLLLSAEPAGTFLIRDSSDQRHFFTLSVKTQSGTKNLRIQCEGGSFSLQSDPRSTQPVPRFDCVLKLVHHYMETPPPGAPSFPSPPTEPSSEVPEQPSAQPLPGSPPRRAYYIYSGGEKIPLVLSRPLSSNVATLQHLCRKTVNGHLDSYEKVTQLPGPIREFLDQYDAPLGSMAEQSDKDVKYYTLEEIQKHKDSKSTWVILHHKVYDLTKFLEEHPGGEEVLGEQAGGDATENFEDVGHSTDARELSKTYIIGELHPDDRSKIAKPSETL
modifications: Amino acid sequence of HM165S3B
[1]
  solubility/yield: high solubility/yield
[1]; expressed and purified in E. coli
  solubility (tendency to precipitate): had little tendency to precipitate
[1]; listed as SDB-fused iCP-SOCS3 recombinant protein
  solubility/yield: showed the highest solubility/yield
[1]; listed as aMTD165/SD-fused SOCS3 recombinant proteins
  solubility/yield: much higher than that of TAT/SD-fused SOCS3 or PolyR/SD-fused SOCS3 recombinant proteins
AGS cells
  induction of apoptosis (Annexin V): showed high anticancer efficacy; also recorded: effects of inducing apoptosis
AGS cells; listed as aMTD165-fused SOCS3 recombinant protein
  induction of apoptosis (Annexin V): induced death of the largest number of cancer cells
STAT3; PANC-1, 10 ng/ml IFN-γ 15 min, 10 μM protein 2 hrs
  IFN-γ-induced phosphorylation of STAT3: suppressed IFN-γ-induced phosphorylation of STAT1 and STAT3
STAT3; PANC-1, 10 ng/ml IFN-γ 15 min, 1, 5, 10 μM protein 2 hrs
  IFN-γ-induced phosphorylation of STAT3: suppressed IFN-γ-induced phosphorylation of STAT3 in dose dependent manner
HepG2 cells
  transduction into HepG2 cells: promoted the transduction into cultured HCC HepG2 cells
